Results from patent publication US20050118674A1, “Engineering of Controlled Deamidation Rates in Peptides, Proteins, and Similar Structures” (priority 2003, published 2005).
Where no end group is shown, it is not given here.

test: First-order nonenzymatic deamidation of pentapeptides in Tris buffer; assay type: physicochemical; details: pH 7.4, 37.0° C., 0.15 M Tris HCl; Asn pentapeptides
Outline: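 First-order deamidation rates determined for XxxAsnYyy and XxxGlnYyy pentapeptides in 0.15 M Tris buffer, pH 7.4, 37° C. Not all values were measured directly: several Asn rates were estimated and most Gln rates came from surface fitting.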

Row | Substance | First-Order Deamidation Halftimes of GlyXxxAsnYyyGly [days]
1 | GlyTrpAsnLysGly (GWNKG; printed: GlyTrpAsnLysGly) | 59.4
2 | GlyTyrAsnGlyGly (GYNGG; printed: GlyTyrAsnGlyGly) | 1.49
3 | GlyCysAsnSerGly (GCNSG; printed: GlyCysAsnSerGly) | 19.0
4 | GlyIleAsnMetGly (GINMG; printed: GlyIleAsnMetGly) | 58.8
5 | GlyAmCysAsnAlaGly (CNAG; not fully specified (N-terminus); printed as GlyAmCysAsnAlaGly) | 21.5
6 | GlySerAsnTyrGly (GSNYG; printed: GlySerAsnTyrGly) | 64.7
7 | GlyArgAsnHisGly (GRNHG; printed: GlyArgAsnHisGly) | 10.0
8 | GlyGlyAsnProGly (GGNPG; printed: GlyGlyAsnProGly) | 7170
9 | GlyLeuAsnPheGly (GLNFG; printed: GlyLeuAsnPheGly) | 72.4
10 | GlyLysAsnArgGly (GKNRG; printed: GlyLysAsnArgGly) | 57.4
11 | GlyThrAsnHisGly (GTNHG; printed: GlyThrAsnHisGly) | 9.6
12 | GlyProAsnMetGly (GPNMG; printed: GlyProAsnMetGly) | 78.4
13 | GlyGlyAsnIleGly (GGNIG; printed: GlyGlyAsnIleGly) | 287
14 | GlyArgAsnValGly (GRNVG; printed: GlyArgAsnValGly) | 247
15 | GlyGluAsnTyrGly (GENYG; printed: GlyGluAsnTyrGly) | 94.5
16 | GlySerAsnHisGly (GSNHG; printed: GlySerAsnHisGly) | 9.0
17 | GlyIleAsnSerGly (GINSG; printed: GlyIleAsnSerGly) | 14.5
18 | GlyAmCysAsnIleGly (CNIG; not fully specified (N-terminus); printed as GlyAmCysAsnIleGly) | 250

Row | Substance | First-Order Deamidation Halftimes of GlyXxxAsnYyyGly [days]
19 | GlyValAsnPheGly (GVNFG; printed: GlyValAsnPheGly) | 66.6
20 | GlyLeuAsnLysGly (GLNKG; printed: GlyLeuAsnLysGly) | 60.1
21 | GlyAlaAsnAlaGly (GANAG; printed: GlyAlaAsnAlaGly) | 22.5
22 | GlyMetAsnTrpGly (GMNWG; printed: GlyMetAsnTrpGly) | 92.7
23 | GlyValAsnValGly (GVNVG; printed: GlyValAsnValGly) | 291
24 | GlyThrAsnCysGly (GTNCG; printed: GlyThrAsnCysGly) | 55.5
25 | GlyTyrAsnMetGly (GYNMG; printed: GlyTyrAsnMetGly) | 64.3
26 | GlyThrAsnValGly (GTNVG; printed: GlyThrAsnValGly) | 237
27 | GlyTyrAsnLysGly (GYNKG; printed: GlyTyrAsnLysGly) | 55.1
28 | GlyValAsnGlyGly (GVNGG; printed: GlyValAsnGlyGly) | 1.23
29 | GlyValAsnAmCysGly | 34.7
30 | GlyProAsnValGly (GPNVG; printed: GlyProAsnValGly) | 364
31 | GlyGlyAsnAlaGly (GGNAG; printed: GlyGlyAsnAlaGly) | 21.1
32 | GlyAspAsnThrGly (GDNTG; printed: GlyAspAsnThrGly) | 52.4
33 | GlyCysAsnPheGly (GCNFG; printed: GlyCysAsnPheGly) | 73.9
34 | GlyLysAsnGluGly (GKNEG; printed: GlyLysAsnGluGly) | 72.5
35 | GlyTrpAsnGluGly (GWNEG; printed: GlyTrpAsnGluGly) | 75.7

same assay, conditions: pH 7.4, 37.0 ° C., 0.15 M Tris HCl; Gln pentapeptides; 52 values measured, rest derived from surface fitting

Row | Substance | First-Order Deamidation Halftimes of GlyXxxGlnYyyGly [days]
36 | GlyTyrGlnGluGly (GYQEG; printed: GlyTyrGlnGluGly) | 8300
37 | GlyPheGlnAspGly (GFQDG; printed: GlyPheGlnAspGly) | 8200
38 | GlyHisGlnCysGly (GHQCG; printed: GlyHisGlnCysGly) | 2200
39 | GlyTrpGlnProGly (GWQPG; printed: GlyTrpGlnProGly) | 11000
40 | GlyThrGlnSerGly (GTQSG; printed: GlyThrGlnSerGly) | 4200
41 | GlyAlaGlnGluGly (GAQEG; printed: GlyAlaGlnGluGly) | 7300
42 | GlyTrpGlnLysGly (GWQKG; printed: GlyTrpGlnLysGly) | 7600
43 | GlyProGlnTyrGly (GPQYG; printed: GlyProGlnTyrGly) | 10000
44 | GlyLysGlnArgGly (GKQRG; printed: GlyLysGlnArgGly) | 2300
45 | GlyHisGlnIleGly (GHQIG; printed: GlyHisGlnIleGly) | 6700
46 | GlyHisGlnMetGly (GHQMG; printed: GlyHisGlnMetGly) | 5200
47 | GlyLeuGlnLysGly (GLQKG; printed: GlyLeuGlnLysGly) | 6100
48 | GlyTrpGlnAspGly (GWQDG; printed: GlyTrpGlnAspGly) | 8800
49 | GlyProGlnAlaGly (GPQAG; printed: GlyProGlnAlaGly) | 4700
50 | GlyLysGlnTrpGly (GKQWG; printed: GlyLysGlnTrpGly) | 10000
51 | GlyAspGlnGlyGly (GDQGG; printed: GlyAspGlnGlyGly) | 800
52 | GlySerGlnGluGly (GSQEG; printed: GlySerGlnGluGly) | 8100
53 | GlyLysGlnValGly (GKQVG; printed: GlyLysGlnValGly) | 5700
54 | GlySerGlnAspGly (GSQDG; printed: GlySerGlnAspGly) | 8200
55 | GlyGluGlnGluGly (GEQEG; printed: GlyGluGlnGluGly) | 8200
56 | GlyLeuGlnPheGly (GLQFG; printed: GlyLeuGlnPheGly) | 8000
57 | GlyCysGlnValGly (GCQVG; printed: GlyCysGlnValGly) | 5000

Row | Substance | First-Order Deamidation Halftimes of GlyXxxGlnYyyGly [days]
58 | GlyGluGlnLysGly (GEQKG; printed: GlyGluGlnLysGly) | 4600
59 | GlyCysGlnGluGly (GCQEG; printed: GlyCysGlnGluGly) | 5600
60 | GlyArgGlnPheGly (GRQFG; printed: GlyArgGlnPheGly) | 7100
61 | GlyLeuGlnCysGly (GLQCG; printed: GlyLeuGlnCysGly) | 2000
62 | GlyTrpGlnHisGly (GWQHG; printed: GlyTrpGlnHisGly) | 7500
63 | GlyProGlnGlyGly (GPQGG; printed: GlyProGlnGlyGly) | 630
64 | GlyGlyGlnGlyGly (GGQGG; printed: GlyGlyGlnGlyGly) | 650
65 | GlyArgGlnIleGly (GRQIG; printed: GlyArgGlnIleGly) | 5500
66 | GlyHisGlnThrGly (GHQTG; printed: GlyHisGlnThrGly) | 5500
67 | GlyMetGlnTrpGly (GMQWG; printed: GlyMetGlnTrpGly) | 9400
68 | GlyGlyGlnThrGly (GGQTG; printed: GlyGlyGlnThrGly) | 5200
69 | GlyAspGlnThrGly (GDQTG; printed: GlyAspGlnThrGly) | 5400
70 | GlyAlaGlnCysGly (GAQCG; printed: GlyAlaGlnCysGly) | 1900
71 | GlyAlaGlnProGly (GAQPG; printed: GlyAlaGlnProGly) | 9300
72 | GlyGlyGlnTrpGly (GGQWG; printed: GlyGlyGlnTrpGly) | 15000
73 | GlySerGlnMetGly (GSQMG; printed: GlySerGlnMetGly) | 5100
74 | GlyGluGlnAspGly (GEQDG; printed: GlyGluGlnAspGly) | 8300
75 | GlyTyrGlnCysGly (GYQCG; printed: GlyTyrGlnCysGly) | 2200
76 | GlyValGlnThrGly (GVQTG; printed: GlyValGlnThrGly) | 4300
77 | GlyArgGlnTyrGly (GRQYG; printed: GlyArgGlnTyrGly) | 9200
78 | GlyHisGlnHisGly (GHQHG; printed: GlyHisGlnHisGly) | 7200
79 | GlyAspGlnTrpGly (GDQWG; printed: GlyAspGlnTrpGly) | 17000
